± gives the standard deviation of the averaged measurements.
B1: library; a variant is named by its letters at N, in order (parent)
chain: GCUGUCACCGGUGUAUUACCCUAGUGGUCGACCGGUCUGAUGAGUCUNNNNNNAGACGAAACAGC

What was measured:
[1] = variants of: B1; assay: FACS-Seq fitted mean relative fluorescence mCherry/BFP without ligand (log10 relative fluorescence); ligand: hypoxanthine (xanthine aptamer); higher = higher reporter protein expression; conditions: HEK293T, ligand present: no
How it was run: (§1)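 An mCherry reporter containing the ribozyme switch and an EF1α-BFP marker were introduced by lentivirus into HEK293T libraries. Cells were enriched, incubated 48 h with or without ligand, sorted into 6 bins by mCherry/BFP, and bin genomic DNA was PCR-amplified, barcoded and sequenced on MiSeq. Fluorescence represents the normalized fitted normal mean of the bin counts. Fitting was done on log10(mCherry/BFP), scaling to five spiked-in control ribozymes.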

[2] = variants of: B1; assay: normalized RNA/DNA level with ligand (relative to sTRSVctl = 100) (log10 (% of sTRSVctl)); ligand: hypoxanthine (xanthine aptamer); higher = less ribozyme self-cleavage, higher mRNA level; conditions: ligand concentration (+) RNA-Seq: 5 mM, HEK293T, reporter: mCherry (pCS4076), ligand present: yes
How it was run: (§2)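 HEK293T cells were transfected with library plasmids carrying ribozyme switches linked to an mCherry reporter, or an eGFP reporter in some ligand experiments, at 4 µg per well of a 6-well plate, with any ligand added 1 h beforehand. After 72 h, total RNA was extracted with EDTA, reverse-transcribed, amplified, barcoded and sequenced. RNA level was defined as RNA reads over DNA reads, normalized to a spiked-in non-cleaving sequence or to the top-ranked sequences. That value was multiplied by 100 and converted to log10, the top set was 25 sequences, and only sequences with ≥100 DNA reads were retained.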

[3] = variants of: B1; assay: normalized RNA/DNA level without ligand (relative to sTRSVctl = 100) (log10 (% of sTRSVctl)); ligand: hypoxanthine (xanthine aptamer); higher = less ribozyme self-cleavage, higher mRNA level; conditions: HEK293T, reporter: mCherry (pCS4076), ligand present: no
How it was run: as §2

[4] = variants of: B1; assay: FACS-Seq fitted mean relative fluorescence mCherry/BFP with ligand (log10 relative fluorescence); ligand: hypoxanthine (xanthine aptamer); ligand concentration (+) FACS-Seq: 5 mM; higher = higher reporter protein expression; conditions: HEK293T, ligand present: yes
How it was run: as §1

| Variant | FACS-Seq fitted mean (log10) [1] | normalized RNA/DNA level with ligand (log10) [2] | normalized RNA/DNA level without ligand (log10) [3] | FACS-Seq fitted mean (log10) [4] |
| --- | --- | --- | --- | --- |
| AUACCC | 0.513 ± 0.014 | 1.94 ± 0.043 | 1.89 ± 0.027 | 0.292 ± 0.028 |
| AUACCG | 0.00532 ± 0.0097 | 1.84 ± 0.095 | 1.47 ± 0.035 | 0.282 ± 0.082 |
| GGUGGC | 0.217 ± 0.017 | 1.89 ± 0.039 | 1.57 ± 0.025 | 0.392 ± 0.007 |
| GGUGGA | 0.261 ± 0.029 | 1.951 ± 0.0027 | 1.71 ± 0.026 | 0.43 ± 0.028 |
| CGUGAA | -0.0193 ± 0.0065 | 1.87 ± 0.051 | 1.6 ± 0.029 | 0.148 ± 0.033 |
| UUAACG | 0.325 ± 0.025 | 1.94 ± 0.06 | 1.85 ± 0.052 | 0.41 ± 0.025 |
| GUAAAG | -0.0437 ± 0.028 | 1.82 ± 0.023 | 1.49 ± 0.045 | -0.15 ± 0.059 |
| GUAAAA | 0.614 ± 0.066 | 1.92 ± 0.06 | 1.815 ± 0.0075 | 0.661 ± 0.033 |
| GUAAAC | 0.572 ± 0.053 | 1.946 ± 0.0036 | 1.74 ± 0.028 | 0.739 ± 0.055 |
| GUAAAU | 0.503 ± 0.07 | 1.88 ± 0.053 | 1.778 ± 0.011 | 0.467 ± 0.11 |
| AUACAA | 0.364 ± 0.062 | 1.9 ± 0.037 | 1.76 ± 0.024 | 0.532 ± 0.013 |
| AUACAC | 0.399 ± 0.093 | 1.915 ± 0.019 | 1.762 ± 0.0072 | 0.456 ± 0.1 |
| AUACAG | 0.1 ± 0.018 | 1.814 ± 0.017 | 1.45 ± 0.039 | 0.561 ± 0.031 |
| UGUUAU | -0.225 ± 0.19 | 1.89 ± 0.0069 | 1.817 ± 0.0095 | -0.287 ± 0.069 |
| GGUCCA | 0.354 ± 0.029 | 1.96 ± 0.023 | 1.94 ± 0.056 | 0.465 ± 0.041 |
| AUACUA | 0.515 ± 0.014 | 1.9061 ± 0.00059 | 1.774 ± 0.001 | 0.512 ± 0.018 |
| AUACUG | 0.294 ± 0.022 | 1.86 ± 0.077 | 1.43 ± 0.088 | 0.634 ± 0.025 |
| GGUUGC | -0.0647 ± 0.067 | 1.92 ± 0.037 | 1.52 ± 0.035 | 0.345 ± 0.043 |

| Variant | FACS-Seq fitted mean (log10) [1] | normalized RNA/DNA level with ligand (log10) [2] | normalized RNA/DNA level without ligand (log10) [3] | FACS-Seq fitted mean (log10) [4] |
| --- | --- | --- | --- | --- |
| GGUUGG | -0.0305 ± 0.021 | 1.83 ± 0.074 | 1.27 ± 0.014 | 0.558 ± 0.021 |
| UUACUG | 0.491 ± 0.085 | 1.93 ± 0.039 | 1.67 ± 0.034 | 0.536 ± 0.13 |
| UGUCUA | -0.725 ± 0.058 | 1.95 ± 0.067 | 1.92 ± 0.02 | -0.723 ± 0.08 |
| UGUGUG | 0.266 ± 0.078 | 1.93 ± 0.058 | 1.676 ± 0.0071 | 0.333 ± 0.086 |
| GUACCA | 0.512 ± 0.037 | 1.944 ± 0.012 | 1.867 ± 0.006 | 0.532 ± 0.03 |
| GUACCG | 0.26 ± 0.029 | 1.903 ± 0.0046 | 1.624 ± 0.0025 | 0.511 ± 0.015 |
| CUAAUC | 0.365 ± 0.027 | 1.94 ± 0.037 | 1.9 ± 0.043 | 0.43119 ± 0.00031 |
| CUAAUG | 0.65 ± 0.052 | 1.922 ± 0.018 | 1.79 ± 0.068 | 0.577 ± 0.044 |
| UUACGU | 0.582 ± 0.017 | 1.95 ± 0.075 | 1.83 ± 0.025 | 0.566 ± 0.013 |
| UUAAAG | 0.207 ± 0.12 | 1.886 ± 0.0075 | 1.6908 ± 0.00025 | 0.201 ± 0.0094 |
| UUAAAA | 0.501 ± 0.012 | 1.966 ± 0.016 | 1.795 ± 0.0061 | 0.388 ± 0.15 |
| UUAAAU | 0.322 ± 0.05 | 1.959 ± 0.016 | 1.83 ± 0.024 | 0.322 ± 0.013 |
| CGUAAA | 0.554 ± 0.028 | 1.865 ± 0.0031 | 1.65 ± 0.034 | 0.4915 ± 0.0049 |
| AGUCUG | 0.186 ± 0.024 | 1.9 ± 0.066 | 1.54 ± 0.029 | 0.414 ± 0.053 |
| UGUUGU | 0.254 ± 0.025 | 1.913 ± 0.0038 | 1.738 ± 0.011 | 0.57 ± 0.019 |
| UGUAUG | 0.361 ± 0.043 | 1.909 ± 0.007 | 1.777 ± 0.0029 | 0.435 ± 0.059 |
| AGUGAU | 0.509 ± 0.14 | 1.91 ± 0.065 | 1.77 ± 0.047 | 0.534 ± 0.019 |
